{"source": "patent US6251583A", "about": "“Peptide substrates for HCV NS3 protease assays” (Schering Corporation, priority 1999, dated 2001)", "key": {"NS3/4A(1-631)/4A(1-54)": {"molecular_target": "T1, NS3/4A(1-631)/4A(1-54) (Hepatitis C virus genotype 1a, UniProt P27958)", "T1 construct": "a noncovalent complex between NS4A (54 residues) and NS3 (631 residues); histidine tag (N, cleaved yes); made in house; host or cells: baculovirus system / insect cells", "experiment": "Cleavage efficiency of nitrophenyl and other ester based chromogenic substrates, spectrophotometric", "type": "biochemical, HCV 1a(H)", "conditions": "25 mM MOPS pH 6.5, 10% glycerol, 0.15 M NaCl, 0.2% lauryl maltoside", "method": "The chromogenic substrates defined by SEQ ID NOs: 5-13 were synthetically produced as described above and tested for cleavage efficiency in 25 mM MOPS buffer, pH 6.5, containing 10% (v/v) glycerol, 0.15 M NaCl, 0.2% lauryl maltoside. The substrates were cleaved by NS3/4A(1-631)/4A(1-54) (see Example 1). The rate of product formation was monitored by a spectrophotometer, at 400 nm for 4Np, 370 nm for PAP, and 340 nm for 3Np and HMC."}, "[1]": {"molecular_target": "(Ac-)[…]-(2-Cl-4-nitroanilide) (HCV)"}, "[2]": {"molecular_target": "biotinylated ester substrate"}, "[3]": {"molecular_target": "biotinylated amide substrates"}, "[4]": {"molecular_target": "Ac-DTEDVVP(Nva)-O-PAP (HCV)"}, "[5]": {"molecular_target": "Ac-DTEDVVA(Nva)-O-4Np (HCV)"}, "[6]": {"molecular_target": "Ac-DTEDVVA(Nva)-O-3Np (HCV)"}, "[7]": {"molecular_target": "Ac-DTEDVVP(Nva)-O-HMC (HCV)"}, "[8]": {"molecular_target": "Ac-DTEDVVA(Nva)-O-PAP (HCV)"}, "[9]": {"molecular_target": "Ac-DTEDVVA(Nva)-O-HMC (HCV)"}}, "note": "“And” between values parts separate entries of the source, which are not always exact repeats. Identical values can stand only once. Square brackets hold non-standard residues; d marks the D form. Peptide text beside a SMILES is read from it. * marks the point of attachment. ONp = O=[N+]([O-])c1ccc(O*)cc1; X2 = c1ccc(N=Nc2ccc(O*)cc2)cc1; X3 = O=[N+]([O-])c1cccc(O*)c1; X1 = Cc1cc(=O)oc2cc(O*)ccc12; Nva = CCC[C@H](N)C(=O)O"}
{"compound": "CCC[C@H](NC(=O)[C@@H]1CCCN1C(=O)[C@@H](NC(=O)[C@@H](NC(=O)[C@H](CC(=O)O)NC(=O)[C@H](CCC(=O)O)NC(=O)[C@@H](NC(=O)[C@H](CC(=O)O)NC(C)=O)[C@@H](C)O)C(C)C)C(C)C)C(=O)Oc1ccc(N=Nc2ccccc2)cc1", "note": "[Ac-DTEDVVP(Nva)-O-PAP] (Ac-DTEDVVP[Nva]-X2)", "values": [{"measurement": "Km", "setting": "NS3/4A(1-631)/4A(1-54)", "value": 18, "unit": "µM"}]}
{"compound": "CCC[C@H](NC(=O)[C@H](C)NC(=O)[C@@H](NC(=O)[C@@H](NC(=O)[C@H](CC(=O)O)NC(=O)[C@H](CCC(=O)O)NC(=O)[C@@H](NC(=O)[C@H](CC(=O)O)NC(C)=O)[C@@H](C)O)C(C)C)C(C)C)C(=O)Oc1ccc([N+](=O)[O-])cc1", "note": "[Ac-DTEDVVA(Nva)-O-4Np] (Ac-DTEDVVA[Nva]-ONp)", "values": [{"measurement": "Km", "setting": "NS3/4A(1-631)/4A(1-54)", "value": 16, "unit": "µM"}]}
{"compound": "HCV NS3(1-631)/4A(1-54) protease, non-covalent complex of full-length HCV 1a(H) NS3 with amino acids (enzyme)", "values": [{"measurement": "kcat/Km", "setting": "[1]", "value": 10, "unit": "M⁻¹ s⁻¹"}, {"measurement": "kcat/Km", "setting": "…-(4-nitroanilide) (HCV)", "value": "15 M⁻¹ s⁻¹ and 45 M⁻¹ s⁻¹"}, {"measurement": "catalytic efficiency", "setting": "[2]", "value": "< 460000", "unit": "M⁻¹ s⁻¹"}, {"measurement": "catalytic efficiency", "setting": "[3]", "value": "< 30000", "unit": "M⁻¹ s⁻¹"}, {"measurement": "kcat/Km", "setting": "[4]", "value": 13000, "unit": "M⁻¹ s⁻¹"}, {"measurement": "kcat/Km", "setting": "Ac-[…](Nva)-O-4Np (HCV)", "value": 25000, "unit": "M⁻¹ s⁻¹"}, {"measurement": "kcat/Km", "setting": "[5]", "value": 38000, "unit": "M⁻¹ s⁻¹"}, {"measurement": "kcat/Km", "setting": "[6]", "value": 7300, "unit": "M⁻¹ s⁻¹"}, {"measurement": "kcat/Km", "setting": "[7]", "value": 8400, "unit": "M⁻¹ s⁻¹"}, {"measurement": "kcat/Km", "setting": "[8]", "value": 4000, "unit": "M⁻¹ s⁻¹"}, {"measurement": "kcat/Km", "setting": "[9]", "value": 8400, "unit": "M⁻¹ s⁻¹"}, {"measurement": "kcat/Km", "setting": "[…](Nva)-O-3Np (HCV)", "value": 11100, "unit": "M⁻¹ s⁻¹"}]}
{"compound": "CCC[C@H](NC(=O)[C@@H]1CCCN1C(=O)[C@@H](NC(=O)[C@@H](NC(=O)[C@H](CC(=O)O)NC(=O)[C@H](CCC(=O)O)NC(=O)[C@@H](NC(=O)[C@H](CC(=O)O)NC(C)=O)[C@@H](C)O)C(C)C)C(C)C)C(=O)Oc1ccc2c(C)cc(=O)oc2c1", "note": "[Ac-DTEDVVP(Nva)-O-HMC] (Ac-DTEDVVP[Nva]-X1)", "values": [{"measurement": "Km", "setting": "NS3/4A(1-631)/4A(1-54)", "value": 40, "unit": "µM"}]}
{"compound": "CCC[C@H](NC(=O)[C@H](C)NC(=O)[C@@H](NC(=O)[C@@H](NC(=O)[C@H](CC(=O)O)NC(=O)[C@H](CCC(=O)O)NC(=O)[C@@H](NC(=O)[C@H](CC(=O)O)NC(C)=O)[C@@H](C)O)C(C)C)C(C)C)C(=O)Oc1ccc2c(C)cc(=O)oc2c1", "note": "[Ac-DTEDVVA(Nva)-O-HMC] (Ac-DTEDVVA[Nva]-X1)", "values": [{"measurement": "Km", "setting": "NS3/4A(1-631)/4A(1-54)", "value": 20, "unit": "µM"}]}
{"compound": "CCC[C@H](NC(=O)[C@H](C)NC(=O)[C@@H](NC(=O)[C@@H](NC(=O)[C@H](CC(=O)O)NC(=O)[C@H](CCC(=O)O)NC(=O)[C@@H](NC(=O)[C@H](CC(=O)O)NC(C)=O)[C@@H](C)O)C(C)C)C(C)C)C(=O)Oc1cccc([N+](=O)[O-])c1", "note": "[Ac-DTEDVVA(Nva)-O-3Np] (Ac-DTEDVVA[Nva]-X3)", "values": [{"measurement": "Km", "setting": "NS3/4A(1-631)/4A(1-54)", "value": 48, "unit": "µM"}]}
{"compound": "CCC[C@H](NC(=O)[C@H](C)NC(=O)[C@@H](NC(=O)[C@@H](NC(=O)[C@H](CC(=O)O)NC(=O)[C@H](CCC(=O)O)NC(=O)[C@@H](NC(=O)[C@H](CC(=O)O)NC(C)=O)[C@@H](C)O)C(C)C)C(C)C)C(=O)Oc1ccc(N=Nc2ccccc2)cc1", "note": "[Ac-DTEDVVA(Nva)-O-PAP] (Ac-DTEDVVA[Nva]-X2)", "values": [{"measurement": "Km", "setting": "NS3/4A(1-631)/4A(1-54)", "value": 17, "unit": "µM"}]}
